# According to PMC3804602, “Nanobody Mediated Crystallization of an Archeal Mechanosensitive Channel” (PLoS ONE, 2013):
# Numbering of substitutions follows the chain as printed.
# T1: T2 mechanosensitive channel from Thermoplasma volcanium, tag free (Thermoplasma volcanium)
# T1 construct: TVN0821, gene amplified from genomic DNA (DSM 4299 [GSS1*]); 297 amino acids per monomer; Cloned into pNIC28-Bsa4 (TEV site) and pET46 (Enterokinase site); In detergent (0.03 % DDM); also called T2 channel; tag free T2-channel; source: E. coli C43(DE3), purified (DDM solubilised, IMAC, tag cleavage, second IMAC, gel filtration); not shown: His-tag, N-terminal, cleaved
# T1 chain: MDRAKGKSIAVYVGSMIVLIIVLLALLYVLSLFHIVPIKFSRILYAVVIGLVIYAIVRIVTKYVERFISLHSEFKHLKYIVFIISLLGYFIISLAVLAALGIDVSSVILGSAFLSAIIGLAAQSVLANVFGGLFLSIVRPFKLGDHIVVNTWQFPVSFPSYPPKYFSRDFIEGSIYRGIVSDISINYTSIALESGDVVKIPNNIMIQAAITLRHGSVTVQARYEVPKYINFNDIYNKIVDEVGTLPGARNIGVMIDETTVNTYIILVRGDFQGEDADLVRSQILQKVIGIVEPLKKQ
# B1: nanobody 2 (VHH)
# VHH: QVQLQESGGGLVQAGGSLRLSCAASGGTFRTGGMAWFRQAPGKAREFAAGISWSGGSTDYGDSVKGRFTISRDNAKNTVYLQMNSLKPEDTAVYYCAASRRFRSGVLTRADDVDYWGKGTQVTVSS
# notes: pHEN6 vector; also called Nb 2; CA-number 3381; source: E. coli WK6 periplasm, purified (IMAC, gel filtration); not shown: His-tag, C-terminal, kept
# B2: nanobody 22 (VHH)
# VHH: B1 VHH with R30K, T31S, G61E, V79M, S99A, S104A, L107V
# notes: pHEN6 vector; also called Nb 22; CA-number 3406; source: E. coli WK6 periplasm, purified (IMAC, gel filtration); not shown: His-tag, C-terminal, kept
# B3: nanobody 6 (VHH)
# VHH: QVQLQESGGGLVQPGGSLRLSCAASGSIFSINAMGWYRQAPGKQRELVAVLTRRGSTNYADSMKGRFTISRDNTKNTVYLQMNSLKPEDTAVYYCNADLEGRPLYWGQGTQVTVSS
# notes: pHEN6 vector; also called Nb 6; CA-number 3387; source: E. coli WK6 periplasm, purified (IMAC, gel filtration); not shown: His-tag, C-terminal, kept
# B4: nanobody 23 (VHH)
# VHH: QVQLQESGGGLVQPGGFLTLSCAASGSPFSFGAMGWYRQAPGKQRELVAIITRRGSTNYADSVKGRFTVSSDNAKNTVYLQMNSLKPEDTAVYYCYHQTAPVADVTWGQGTQVTVSS
# notes: pHEN6 vector; also called Nb 23; CA-number 3407; source: E. coli WK6 periplasm, purified (IMAC, gel filtration); not shown: His-tag, C-terminal, kept
# B5: nanobody 11 (VHH)
# VHH: B4 VHH with P14A, F17S, T19R, S27G, S30T, R53K, R54K, S71R
# notes: pHEN6 vector; also called Nb 11; CA-number 3393; source: E. coli WK6 periplasm, purified (IMAC, gel filtration); not shown: His-tag, C-terminal, kept
# B6: nanobody 16 (VHH)
# VHH: B4 VHH with F17S, R53S, R54G, S71R
# notes: pHEN6 vector; also called Nb 16; CA-number 3398; source: E. coli WK6 periplasm, purified (IMAC, gel filtration); not shown: His-tag, C-terminal, kept
# B7: nanobody 8 (VHH)
# VHH: QVQLQESGGGLVQPGGSLRLSCAASGSPFSFGAMGWYRQAPGKQRELAAIITNAGSTMYADSVKGRFTVSRVNAKNTVSLQMNNLKPEDTAVYYCYAQTAPVADVTWGQGTQVTVSS
# notes: pHEN6 vector; also called Nb 8; CA-number 3389; source: E. coli WK6 periplasm, purified (IMAC, gel filtration); not shown: His-tag, C-terminal, kept
# B8: nanobody 1 (VHH)
# VHH: QVQLQESGGGLVQPGGSLRLSCAASGRIPFITAMGWYRQAPGKQRELLASVTNSEITNYADSVKGRFTISRDNARNRVYLQMNSLKPEDTAVYYCNVKRAGNLIDYWGQGTQVTVSS
# notes: pHEN6 vector; also called Nb 1; CA-number 3379; source: E. coli WK6 periplasm, purified (IMAC, gel filtration); not shown: His-tag, C-terminal, kept
# B9: nanobody 12 (VHH)
# VHH: QVQLQESGGGLVQPGGSLRLSCVASGSIFSINAMGWYRQAPGKQRDLVAVITSRGSTNYADSVKGRFTISRDNAKNTTYLQMNSLKPEDTAVYYCNADLAAYYSGTYYDTLLYWGQGTQVTVSS
# notes: pHEN6 vector; also called Nb 12; CA-number 3394; source: E. coli WK6 periplasm, purified (IMAC, gel filtration); not shown: His-tag, C-terminal, kept
# B10: nanobody 19 (VHH)
# VHH: QVQLQESGGGLVQPGGSLRLSCAASGSISRLNHMGWYRQPPGKQRELVAVITSGGSTDYADSVKGRFTISSGNAKNTVYLQMNSLKTEDTAVYYCNAYSEFIRPYTLWGQGTQVTVSS
# notes: pHEN6 vector; also called Nb 19; CA-number 3402; source: E. coli WK6 periplasm, purified (IMAC, gel filtration); not shown: His-tag, C-terminal, kept
# B11: nanobody 13 (VHH)
# VHH: B10 VHH with L31I, D58N, S71R, A74Y, K75Q, T87A, S99T, I102D, T106N, L107H
# notes: pHEN6 vector; also called Nb 13; CA-number 3395; source: E. coli WK6 periplasm, purified (IMAC, gel filtration); not shown: His-tag, C-terminal, kept
# B12: nanobody 17 (VHH)
# VHH: QVQLQESGGGLVQPGGSLRLSCAASGSIFSINSMDWYRQAPGKQRELVATITSGGSTNYADSVKGRFTISRDNGKNTVYLQMNSLKPEDTAVYYCHAVVSTRGGYWGQGTQVTVSS
# notes: pHEN6 vector; also called Nb 17; CA-number 3399; source: E. coli WK6 periplasm, purified (IMAC, gel filtration); not shown: His-tag, C-terminal, kept
# B13: nanobody 14 (VHH)
# VHH: B12 VHH with G74A, Y94L, S100A
# notes: pHEN6 vector; also called Nb 14; CA-number 3396; source: E. coli WK6 periplasm, purified (IMAC, gel filtration); not shown: His-tag, C-terminal, kept
# B14: nanobody 4 (VHH)
# VHH: B12 VHH with I31M, G74A, K75W, Y79T, V99L
# notes: pHEN6 vector; also called Nb 4; CA-number 3383; source: E. coli WK6 periplasm, purified (IMAC, gel filtration); not shown: His-tag, C-terminal, kept
# B15: nanobody 20 (VHH)
# VHH: B12 VHH with S27N, S30G, A60G, G74A, V78M, V99L
# notes: pHEN6 vector; also called Nb 20; CA-number 3403; source: E. coli WK6 periplasm, purified (IMAC, gel filtration); not shown: His-tag, C-terminal, kept
# B16: nanobody 10 (VHH)
# VHH: B12 VHH with G74A, S100A
# notes: pHEN6 vector; also called Nb 10; CA-number 3391; source: E. coli WK6 periplasm, purified (IMAC, gel filtration); not shown: His-tag, C-terminal, kept
# B17: nanobody 18 (VHH)
# VHH: QVQLQESGGGLVQPGGSLRLSCAASGSIFSINAMGWYRQAPGKQRELVAFITKVGNTNYADSVKDRFAISRDNAKNTVYLQMNSLKPEDTAVYYCYADIENSSNYKQDFYWGQGTQVTVSS
# notes: pHEN6 vector; also called Nb 18; CA-number 3401; source: E. coli WK6 periplasm, purified (IMAC, gel filtration); not shown: His-tag, C-terminal, kept
# B18: nanobody 21 (VHH)
# VHH: QVQLQESGGGLVQPGGSLRLSCAASGRIPFITAMGWYRQAPGRQRELLATVTNSGSTNYADSVKGRFTISRDNAKNTVSLQMNSLKAEDTAVYYCNVRRLGNLSDYWGQGTQVTVSS
# notes: pHEN6 vector; also called Nb 21; CA-number 3404; source: E. coli WK6 periplasm, purified (IMAC, gel filtration); not shown: His-tag, C-terminal, kept
# B19: nanobody 7 (VHH)
# VHH: QVQLQESGGGLVQPGGSLRLSCTASGTIFMIDAMGWYRQAPGKQRELVALINSGGSTNYADSVKGRFAISRNNARSTVYLQMNSLKPEDTAVYYCNADTWNGVRRDVYWGQGTQVTVSS
# notes: pHEN6 vector; also called Nb 7; CA-number 3388; source: E. coli WK6 periplasm, purified (IMAC, gel filtration); not shown: His-tag, C-terminal, kept
# B20: nanobody 3 (VHH)
# VHH: QVQLQESGGGLVQPGGSLRLSCAASGFTLDYYAIGWFRQTPGKEREGVSCISSSDDSTYYADSVKGRFTISRDNAKNTVYLQMNSLKPEDTAVYYCATGWACTLVAGTNGMDYWGKGTQVTVSS
# notes: pHEN6 vector; also called Nb 3; CA-number 3382; source: E. coli WK6 periplasm, purified (IMAC, gel filtration); not shown: His-tag, C-terminal, kept
# B21: nanobody 15 (VHH)
# VHH: QVQLQESGGGLVQPGGSLRLSCAASGSISTINHMGWYRQPPGKQRELVAVITRSGSTNYADSVKGRFTISRGNVKNTVYLQMNSVKAEDTAVYYCNAYTEFDRPYNHWGQGTQVTVSS
# notes: pHEN6 vector; also called Nb 15; CA-number 3397; source: E. coli WK6 periplasm, purified (IMAC, gel filtration); not shown: His-tag, C-terminal, kept
# B22: nanobody 9 (VHH)
# VHH: B21 VHH with S29F, T30G, H33A, Q39R, R53S, S54G, V74A, V85L, E100D, D102V
# notes: pHEN6 vector; also called Nb 9; CA-number 3390; source: E. coli WK6 periplasm, purified (IMAC, gel filtration); not shown: His-tag, C-terminal, kept
# Target: T1, T2 mechanosensitive channel from …
# Test: SPR; BIAcore 3000, 25 °C, 20 mM sodium phosphate pH 7.4, 150 mM NaCl, 0.03 % DDM; T2 channel amine-coupled on CM5 (1500 - 2000 RU); nanobodies 0.35 - 86.1 nM injected in triplicates; global fit to a simple bimolecular model, KD = kd/ka
# Settings: both partners purified
Kd,koff,kon,Molecule
81.2 nM,0.104 s⁻¹,1.31e+06 M⁻¹ s⁻¹,B1
25.4 nM,0.0061 s⁻¹,240000 M⁻¹ s⁻¹,B2
4.4 nM,0.0081 s⁻¹,1.82e+06 M⁻¹ s⁻¹,B3
0.78 nM,0.00095 s⁻¹,1.26e+06 M⁻¹ s⁻¹,B4
15.1 nM,0.0016 s⁻¹,100000 M⁻¹ s⁻¹,B5
7.4 nM,0.0055 s⁻¹,750000 M⁻¹ s⁻¹,B6
0.58 nM,0.00089 s⁻¹,1.56e+06 M⁻¹ s⁻¹,B7
14.2 nM,0.0278 s⁻¹,1.98e+06 M⁻¹ s⁻¹,B8
3.8 nM,0.0025 s⁻¹,650000 M⁻¹ s⁻¹,B9
1.29 nM,0.0015 s⁻¹,1.35e+06 M⁻¹ s⁻¹,B10
0.61 nM,0.00088 s⁻¹,1.46e+06 M⁻¹ s⁻¹,B11
4.5 nM,0.00315 s⁻¹,710000 M⁻¹ s⁻¹,B12
2.6 nM,0.0023 s⁻¹,880000 M⁻¹ s⁻¹,B13
3.4 nM,0.0021 s⁻¹,620000 M⁻¹ s⁻¹,B14
3.5 nM,0.0036 s⁻¹,1.03e+06 M⁻¹ s⁻¹,B15
3.9 nM,0.0036 s⁻¹,940000 M⁻¹ s⁻¹,B16
1.1 nM,0.00052 s⁻¹,480000 M⁻¹ s⁻¹,B17
37 nM,0.171 s⁻¹,5e+06 M⁻¹ s⁻¹,B18
23 nM,0.07 s⁻¹,3e+06 M⁻¹ s⁻¹,B19
9.5 nM,0.0091 s⁻¹,960000 M⁻¹ s⁻¹,B20
0.057 nM,0.00011 s⁻¹,1.96e+06 M⁻¹ s⁻¹,B21
48.3 nM,0.15 s⁻¹,3.1e+06 M⁻¹ s⁻¹,B22

# Target: His-tagged T2 mechanosensitive channel from Thermoplasma volcanium (Thermoplasma volcanium)
# Test: far-Western, overlay or dot blot; channel samples run on SDS-PAGE and blotted on nitrocellulose (His-tagged T1 0.1 µg, His-tagged T2 0.1 µg, tag free T2 0.01 and 0.1 µg); strips incubated with nanobody at 1 µg/ml for 1 hour, bound His-tagged nanobody detected with HisProbe-HRP; intensity ratio of lane 2 of the sample strip to the reference strip
# Settings: not given
row,ratio of WB intensities,Molecule
1,4.7,B3
2,16.6,B4
3,14.2,B5
4,1.98,B6
5,15,B7
6,7.15,B9
7,17.5,B10
8,15.1,B11
9,6.09,B12
10,6.07,B13
11,3.87,B14
12,4.86,B15
13,9.8,B16
14,15.7,B17
15,4.59,B20
16,25.7,B21

# Target: T1 mechanosensitive channel from Thermoplasma volcanium (Thermoplasma volcanium)
# Test: cross-linking; chemical crosslinking; the sample of T1 is not told (only T2 is shown, Figure 2 D)
# Settings: not given
row,stoichiometry N,Molecule
1,5,T1 mechanosensitive channel from Thermoplasma volcanium (natural protein)

# Target: His-tagged T2 mechanosensitive channel from Thermoplasma volcanium (Thermoplasma volcanium)
# Test: cross-linking; chemical crosslinking of the T2 channel in crude membranes; ladder of five bands
# Settings: not given
row,stoichiometry N,Molecule
1,5,His-tagged T2 mechanosensitive channel from Thermoplasma volcanium (natural protein)
